{"source": "the RNAGym collection of RNA variant scans (doi:10.7554/elife.80360)", "parents": {"B1": {"name": "Hairpin Ribozyme (parent)", "chain": "GUCCUCUUUCACGUGCGCGUGAAAGAGAGAAGUGAACCAGAGAAACACACGUUGUGGUAUAUUACCUGGUA"}}, "data": [{"variants_of": "B1", "assay": "self-cleavage, relative activity (ratio to wild type); higher = more cleavage; co-transcriptional", "values": [{"variant": "GUCCUCUUUCACGUGCGCGCGAAAGAGAGAAGUGAACCAGAGAAACACACGUUGUGGAAUAUUACCUGGUA", "self-cleavage": 0.673}, {"variant": "GUCCUCUUUCACGUGCGCGCGAAAGAGAGAAGUGAACCAGAGAAACACACGUUGUGGCAUAUUACCUGGUA", "self-cleavage": 0.893}, {"variant": "GUCCUCUUUCACGUGCGCGCGAAAGAAAGAAGUGAACCAGAGAAACACACGUUGUGGUAUAUUACCUGGUA", "self-cleavage": 0.345}, {"variant": "GUCCUCUUUCACGUGCGCGCGAAAGACAGAAGUGAACCAGAGAAACACACGUUGUGGUAUAUUACCUGGUA", "self-cleavage": 0.169}, {"variant": "GUCCUCUUUCACGUGCGCGCGAAAGAGAGAAGUCAACCAGAGAAACACACGUUGUGGUAUAUUACCUGGUA", "self-cleavage": 1.45}, {"variant": "GUCCUCUUUCACGUGCGCGCGAAAGAGAGAAGUGAACCAGAGAAACAUACGUUGUGGUAUAUUACCUGGUA", "self-cleavage": 0.175}, {"variant": "GUCCUCUUUCACGUGCGCGCGAAAGAGAGAAGUGAACCAGAGAAACAGACGUUGUGGUAUAUUACCUGGUA", "self-cleavage": 0.104}, {"variant": "GUCCUCUUUCACGUGCGCGGGAAAGAGAGCAGUGAACCAGAGAAACACACGUUGUGGUAUAUUACCUGGUA", "self-cleavage": 0.194}, {"variant": "GUCCUCUUUCACGUGCGCGCGAAAGAGAGAAGUGAACCAGAGAAACACACGUUGUGGUAUACUACCUGGUA", "self-cleavage": 0.462}, {"variant": "GUCCUCUUUCACGUGCGCGCGAAAGAGAGAAGUGAACCAGAGAAACACACGUUGUGGUAUAUUAGCUGGUA", "self-cleavage": 0.472}, {"variant": "GUCCUCUUUCACGUGCGCGCGAAAGAGAGAAGUGAACCAGAGAAACACACGUUGUGGUAUAUUACCUGGGA", "self-cleavage": 0.909}, {"variant": "GUCCUCUUUCACGUGCGCGGGAAAGAGAGAAGUGCACCAGAGAAACACACGUUGUGGUAUAUUACCUGGUA", "self-cleavage": 0.976}, {"variant": "GUCCUCUUUCACGUGCGCGCGAAAGAGAUAAGUGAACCAGAGAAACACACGUUGUGGUAUAUUACCUGGUA", "self-cleavage": 0.235}, {"variant": "GUCCUCUUUCACGUGCGCGCGAAAGAGAGAAGUGAACCAGAGAAACACACGUUGUGCUAUAUUACCUGGUA", "self-cleavage": 0.198}, {"variant": "GUCCUCUUUCACGUGCGCGCGAAAAAGAGAAGUGAACCAGAGAAACACACGUUGUGGUAUAUUACCUGGUA", "self-cleavage": 0.288}, {"variant": "GUCCUCUUUCACGUGCGCGGGAAAGAGAGAAGUGAUCCAGAGAAACACACGUUGUGGUAUAUUACCUGGUA", "self-cleavage": 0.749}, {"variant": "GUCCUCUUUCACGUGCGCGGGAAAGAGAGAAGUGACCCAGAGAAACACACGUUGUGGUAUAUUACCUGGUA", "self-cleavage": 0.771}, {"variant": "GUCCUCUUUCACGUGCGCGGGAAAGAGAGAAGUGAACCGGAGAAACACACGUUGUGGUAUAUUACCUGGUA", "self-cleavage": 0.27}, {"variant": "GUCCUCUUUCACGUGCGCGCGAAAGAGAGAAGUGAACCAGAGAAACACACGUUGUGGUAUAUUACCGGGUA", "self-cleavage": 0.336}, {"variant": "GUCCUCUUUCACGUGCGCGGGAAAGCGAGAAGUGAACCAGAGAAACACACGUUGUGGUAUAUUACCUGGUA", "self-cleavage": 0.483}, {"variant": "GUCCUCUUUCACGUGCGCGGGAAAGGGAGAAGUGAACCAGAGAAACACACGUUGUGGUAUAUUACCUGGUA", "self-cleavage": 0.788}, {"variant": "GUCCUCUUUCACGUGCGCGCGAAAGAGAGAAGUGAACCAGAGAAACACACUUUGUGGUAUAUUACCUGGUA", "self-cleavage": 1.07}, {"variant": "GUCCUCUUUCACGUGCGCGCGAAAGAGAGAAGUGAACCAGAGAAACACACCUUGUGGUAUAUUACCUGGUA", "self-cleavage": 0.54}, {"variant": "GUCCUCUUUCACGUGCGCGGGAAAGAGAGAGGUGAACCAGAGAAACACACGUUGUGGUAUAUUACCUGGUA", "self-cleavage": 0.581}, {"variant": "GUCCUCUUUCACGUGCGCGGGAUAGAGAGAAGUGAACCAGAGAAACACACGUUGUGGUAUAUUACCUGGUA", "self-cleavage": 0.712}, {"variant": "GUCCUCUUUCACGUGCGCGGGAGAGAGAGAAGUGAACCAGAGAAACACACGUUGUGGUAUAUUACCUGGUA", "self-cleavage": 0.98}, {"variant": "GUCCUCUUUCACGUGCGCGCGAAAGAGAGAAGCGAACCAGAGAAACACACGUUGUGGUAUAUUACCUGGUA", "self-cleavage": 0.13}, {"variant": "GUCCUCUUUCACGUGCGCGCGAAAGAGAGAAGUGAACCAGAGAAAUACACGUUGUGGUAUAUUACCUGGUA", "self-cleavage": 0.103}, {"variant": "GUCCUCUUUCACGUGCGCGCGAAAGAGAGAAGUGAACCAGAGAAAAACACGUUGUGGUAUAUUACCUGGUA", "self-cleavage": 0.237}, {"variant": "GUCCUCUUUCACGUGCGCGGGAACGAGAGAAGUGAACCAGAGAAACACACGUUGUGGUAUAUUACCUGGUA", "self-cleavage": 0.789}, {"variant": "GUCCUCUUUCACGUGCGCGGGUAAGAGAGAAGUGAACCAGAGAAACACACGUUGUGGUAUAUUACCUGGUA", "self-cleavage": 0.868}, {"variant": "GUCCUCUUUCACGUGCGCGGGGAAGAGAGAAGUGAACCAGAGAAACACACGUUGUGGUAUAUUACCUGGUA", "self-cleavage": 0.959}, {"variant": "GUCCUCUUUCACGUGCGCGCGAAAGAGAGAAGUGAACCAGAGAAACACACGUUGAGGUAUAUUACCUGGUA", "self-cleavage": 0.407}, {"variant": "GUCCUCUUUCACGUGCGCGCGAAAGAGAGAAGUGAACCAGAGAAACACACGUUGUAGUAUAUUACCUGGUA", "self-cleavage": 0.255}, {"variant": "GUCCUCUUUCACGUGCGCGCGAAAGAGAGAAGUGAACCAGAAAAACACACGUUGUGGUAUAUUACCUGGUA", "self-cleavage": 0.19}, {"variant": "GUCCUCUUUCACGUGCGCGCGAAAGAGAGAAUUGAACCAGAGAAACACACGUUGUGGUAUAUUACCUGGUA", "self-cleavage": 0.157}, {"variant": "GUCCUCUUUCACGUGCGCGCGAAAGAGAGAAGUGAACCAGAGAAACACACGUUGUGGUAUAUUACAUGGUA", "self-cleavage": 0.309}, {"variant": "GUCCUCUUUCACGUGCGCGCGAAAGAGAGAAGUGAACCAGAGAAACACACGUUGUGGUAUAUUACUUGGUA", "self-cleavage": 0.486}]}]}
